The source of these data is patent US20070105162A1, “Monovalent avidin and streptavidin compositions” (Massachusetts Institute of Technology, priority 2005, published 2007).

Series [1] deals with biotinylated AP-CFP-TM on HeLa cells. In words: Staining of biotinylated AP-CFP-TM on HeLa with Alexa Fluor 568-conjugated avidins. The series is classed as cell-based. Particulars: avidin, Alexa Fluor 568 conjugate. As to the method: Enzymatic biotinylation and imaging of HeLa transfectants are performed as previously described (Howarth, M. et al., Proc. Natl. Acad. Sci. USA 102: 7583-7588, 2005), except instead of 10 μM biotin and 1 mM ATP, we add 10 μM biotin-AMP (synthesized according to Coleman and Huang; Coleman, T. M. and Huang, F. Chem. Biol. 9: 1227-1236, 2002) to give equivalent biotinylation but minimizing the risk of purinoreceptor activation by ATP (Rathbone, M. P. et al., Prog. Neurobiol. 59: 663-690, 1999). […] Biotinylation of neurons is performed at day in vitro (DIV) 8 in Hanks' Balanced Salt Solution (HBSS) (Invitrogen) with 0.2 μM biotin ligase and 10 μM biotin-AMP for 5 min at 37° C. […] Neurons are washed with NeuroBasal media (Invitrogen) supplemented with B-27 (Invitrogen), 50 U/mL penicillin, 50 μg/mL streptomycin, and 0.2 mM L-glutamine and chased in the same medium for 0 or 2 hr at 37° C. Cells are then fixed in −20° C. methanol. There was no signal from wild-type avidin labeling if neurons were instead transfected with Ala-neuroligin-1 containing a point mutation in AP, confirming the specificity of labeling. […]
Images of HeLa cells are collected on a Zeiss Axiovert 200M inverted epifluorescence microscope using a 40× oil-immersion lens and a MicroMAX CCD camera (Roper Scientific; Tucson, Ariz.). CFP (420DF20 excitation, 450DRLP dichroic, 475DF40 emission) and Alexa568 (560DF20 excitation, 585DRLP dichroic, 605DF30 emission) images are collected and analyzed using OpenLab software (Improvision; Lexington, Mass.). Fluorescence images are background-corrected. […] Images are scaled to 16 bits and analyzed in Northern Eclipse (Empix Imaging; Ontario, Canada) with user-written software. […] Results are then calculated in terms of clusters per micrometer of dendrite. For assessment of pre-synaptic terminals, clusters are determined as before and average grey levels of clusters are compared between transfected dendrites and untransfected dendrites within the same field of view. […] “n” represents the number of transfected neurons for which clusters were measured. […]

Series [2] is described as follows: Kd of D4 by 3H-biotin binding and protein precipitation. Particulars: 24 μM D4, increasing 3H-biotin (0-500 μM), >20 hr room temperature; ± s.e.m. As to the method: After incubation at room temperature for 20 hr, the protein was precipitated by adding 50 μL to 200 μL 0.2 M ZnSO4 followed by 200 μL 0.2 M NaOH. The protein precipitate was pelleted by centrifugation at 16,500 g for 5 min. The biotin bound by D4 was calculated from the total ^3H-biotin added minus the ^3H-biotin in the supernatant. The Kd was obtained using a nonlinear regression analysis (one-site binding hyperbola) with SigmaPlot (Systat Software; Point Richmond, Calif.).

Series [3] is described as follows: Subunit exchange of monovalent streptavidin over time by SDS-PAGE. It counts as physicochemical. To be noted: for A1D3 rearranged into D4: PBS. On the procedure: Methods described in the Methods section above herein were used for the following production and testing of monovalent streptavidin. Tests were performed to determine whether monovalent streptavidin would rearrange its subunit composition over time.

In general, Kd refers to the equilibrium constant for the complex coming apart. On to “D4: Streptavidin tetramer with 4 dead subunits (D: N23A, S27D, S45A, SEQ ID NO:3) [Tetramer D4]”, for which the “Alexa staining of biotinylated AP-CFP-TM” value in series [1] is listed as “no detectable staining”. This substance returned a Kd in series [2] of 918 ± 0.0117 µM.

Consider “A1D3: Monovalent streptavidin tetramer: one His6-tagged wild-type (A) subunit and three dead (D) subunits [Tetramer A1D3]”, for which the figures for the “A1D3 rearranged into D4” value in series [3] (37° C. incubation for one day) and in series [3] (room temperature incubation for one week) were 2% and 3%, respectively. Moreover, in series [3] (37° C. one day or room temperature one week), the “Formation of A2D2 from subunit exchange” value was “not detected”. The “Alexa staining of biotinylated AP-CFP-TM” value in series [1] is “detected equally well”.
